Test results from PMC9023255, “Mechanisms of substrate recognition and N6-methyladenosine demethylation revealed by crystal structures of ALKBH5–RNA complexes”.

Molecular target: ALKBH5 74-292 (human, UniProt Q6P6C2 74-292)
Experiment: X-ray crystallography; Mn2+, sulfate in 2OG site (NOG added but not observed); 2.1 A, P32; GG(m6A)C ordered; Complex formation: 25 mM Tris pH 7.5, 400 uM protein, 333 uM RNA, 2 mM MnCl2, 2 or 10 mM NOG or 10 mM 2OG, on ice 30 min, then SEC in 25 mM Tris pH 7.5; mutant
Details: protein: recombinant; tags: N-terminal His6, removed by TEV protease; single strand

ALKBH5 74-292, sequence (Q6P6C2 74-292): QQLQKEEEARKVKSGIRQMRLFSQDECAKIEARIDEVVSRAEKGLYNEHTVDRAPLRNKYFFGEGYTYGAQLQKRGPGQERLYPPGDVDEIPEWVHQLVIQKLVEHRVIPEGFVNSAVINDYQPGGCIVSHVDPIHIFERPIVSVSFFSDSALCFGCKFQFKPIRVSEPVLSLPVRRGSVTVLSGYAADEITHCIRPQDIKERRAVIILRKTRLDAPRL

Binder: UGGACUGC (ssRNA, N6-methyladenosine at position 4 (m6A)) [8-mer m6A ssRNA]
- binding result: binds
